In US20240376151A1, “STAPLED PEPTIDES AND METHODS THEREOF” (FOG PHARMACEUTICALS, INC., priority 2022, published 2024):
Ends that are not written are not given here.

Tests used:
beta-catenin = target: T1, beta-catenin (Homo sapiens, UniProt P35222); test: Phage Library Screening with NGS, beta-catenin; format: binding; settings: for Target Concentration 10 (phage screen NGS readout): beta-catenin target concentration 10; for Target Concentration 10 (phage screen NGS readout) / Target Concentration 30 (phage screen NGS readout) / Target Concentration 100 (phage screen NGS readout) / Target Concentration 300 (phage screen NGS readout): no competitor; for Target Concentration 30 (phage screen NGS readout): beta-catenin target concentration 30; for Target Concentration 100 (phage screen NGS readout): beta-catenin target concentration 100; for Target Concentration 300 (phage screen NGS readout): beta-catenin target concentration 300; for Target Concentration 1000 (phage screen NGS readout): beta-catenin target concentration 1000
T1 construct: made in house; host or cells: E. coli BL21 (DE3) pLysS
T1 sequence (P35222 134-665): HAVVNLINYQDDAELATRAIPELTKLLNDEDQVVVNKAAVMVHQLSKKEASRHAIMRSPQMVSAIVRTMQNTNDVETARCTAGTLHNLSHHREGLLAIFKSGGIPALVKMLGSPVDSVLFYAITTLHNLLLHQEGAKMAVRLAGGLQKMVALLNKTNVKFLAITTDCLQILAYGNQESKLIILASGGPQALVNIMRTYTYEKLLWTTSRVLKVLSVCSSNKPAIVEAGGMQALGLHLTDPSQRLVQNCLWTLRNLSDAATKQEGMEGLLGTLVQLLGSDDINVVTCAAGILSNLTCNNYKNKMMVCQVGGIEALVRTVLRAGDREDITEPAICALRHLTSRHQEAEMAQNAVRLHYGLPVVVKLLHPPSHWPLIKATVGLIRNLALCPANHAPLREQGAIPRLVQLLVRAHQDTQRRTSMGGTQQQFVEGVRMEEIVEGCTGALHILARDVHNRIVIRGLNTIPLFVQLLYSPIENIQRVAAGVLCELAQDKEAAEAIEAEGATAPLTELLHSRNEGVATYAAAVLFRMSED

RNF31 PUB domain = target: T2, RNF31 PUB domain (Homo sapiens, UniProt Q96EP0); test: Phage Library Screening with NGS, RNF31 PUB domain; format: binding; settings: for Phage library screen NGS readout, Target Concentration 10 / Phage library screen NGS readout, Target Concentration 30 / Phage library screen NGS readout, Target Concentration 100 / Phage library screen NGS readout, Target Concentration 300 / Phage library screen NGS readout, Target Concentration 1000: RNF31 PUB domain clusters C41-C45; for Phage library screen NGS readout, BLANK: clusters C41-C45
T2 construct: MBP-TEV (N, cleaved yes); made in house; host or cells: E. coli BL21 (DE3) pLysS
T2 sequence (Q96EP0 1-179): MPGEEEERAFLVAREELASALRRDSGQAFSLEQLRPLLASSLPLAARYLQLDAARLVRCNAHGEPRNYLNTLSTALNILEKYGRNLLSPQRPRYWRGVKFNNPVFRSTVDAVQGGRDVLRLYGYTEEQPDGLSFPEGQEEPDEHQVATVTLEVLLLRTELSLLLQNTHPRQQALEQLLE

[1] = target concentration 1000, first column
[2] = target concentration 1000, second column

DPAYWDCTHAALLCNLD
Target Concentration BLANK (phage screen NGS readout) (beta-catenin; first column): 0
Target Concentration BLANK (phage screen NGS readout) (beta-catenin; fourth column): 0
Target Concentration BLANK (phage screen NGS readout) (beta-catenin; second column): 1
Target Concentration BLANK (phage screen NGS readout) (beta-catenin; third column): 2
Target Concentration 10 (phage screen NGS readout) (beta-catenin): 3
Target Concentration 30 (phage screen NGS readout) (beta-catenin): 14
Target Concentration 100 (phage screen NGS readout) (beta-catenin): 152
Target Concentration 300 (phage screen NGS readout) (beta-catenin): 42
Target Concentration 1000 (phage screen NGS readout) (beta-catenin; first 1000 column): 543
Target Concentration 1000 (phage screen NGS readout) (beta-catenin; second 1000 column): 409

DPAVFMCYEAAFECQYF
Target Concentration BLANK (phage screen NGS readout) (beta-catenin; first column): 0
Target Concentration BLANK (phage screen NGS readout) (beta-catenin; fourth column): 0
Target Concentration BLANK (phage screen NGS readout) (beta-catenin; second column): 2
Target Concentration BLANK (phage screen NGS readout) (beta-catenin; third column): 1
Target Concentration 10 (phage screen NGS readout) (beta-catenin): 0
Target Concentration 30 (phage screen NGS readout) (beta-catenin): 0
Target Concentration 100 (phage screen NGS readout) (beta-catenin): 0
Target Concentration 300 (phage screen NGS readout) (beta-catenin): 1
Target Concentration 1000 (phage screen NGS readout) (beta-catenin; first 1000 column): 2
Target Concentration 1000 (phage screen NGS readout) (beta-catenin; second 1000 column): 7

DPAEWQCEHAALLCEQQ
Target Concentration BLANK (phage screen NGS readout) (beta-catenin; first column): 0
Target Concentration BLANK (phage screen NGS readout) (beta-catenin; fourth column): 6
Target Concentration BLANK (phage screen NGS readout) (beta-catenin; second column): 2
Target Concentration BLANK (phage screen NGS readout) (beta-catenin; third column): 0
Target Concentration 10 (phage screen NGS readout) (beta-catenin): 78
Target Concentration 30 (phage screen NGS readout) (beta-catenin): 201
Target Concentration 100 (phage screen NGS readout) (beta-catenin): 907
Target Concentration 300 (phage screen NGS readout) (beta-catenin): 1681
Target Concentration 1000 (phage screen NGS readout) (beta-catenin; first 1000 column): 1740
Target Concentration 1000 (phage screen NGS readout) (beta-catenin; second 1000 column): 1609

DPAILDCHIAAIQCFHD
Target Concentration BLANK (phage screen NGS readout) (beta-catenin; first column): 0
Target Concentration BLANK (phage screen NGS readout) (beta-catenin; fourth column): 3
Target Concentration BLANK (phage screen NGS readout) (beta-catenin; second column): 0
Target Concentration BLANK (phage screen NGS readout) (beta-catenin; third column): 0
Target Concentration 10 (phage screen NGS readout) (beta-catenin): 2
Target Concentration 30 (phage screen NGS readout) (beta-catenin): 1
Target Concentration 100 (phage screen NGS readout) (beta-catenin): 6
Target Concentration 300 (phage screen NGS readout) (beta-catenin): 8
Target Concentration 1000 (phage screen NGS readout) (beta-catenin; first 1000 column): 1
Target Concentration 1000 (phage screen NGS readout) (beta-catenin; second 1000 column): 44

DPAAWECHIAAFVCSTY
Phage library screen NGS readout, Target Concentration 10 (RNF31 PUB domain): 1
Phage library screen NGS readout, Target Concentration 30 (RNF31 PUB domain): 1
Phage library screen NGS readout, Target Concentration 100 (RNF31 PUB domain): 0
Phage library screen NGS readout, Target Concentration 300 (RNF31 PUB domain): 2
Phage library screen NGS readout, Target Concentration 1000 (RNF31 PUB domain; [1]): 8
Phage library screen NGS readout, Target Concentration 1000 (RNF31 PUB domain; [2]): 7
Phage library screen NGS readout, BLANK (RNF31 PUB domain; column 1 of 5): 0
Phage library screen NGS readout, BLANK (RNF31 PUB domain; column 2 of 5): 0
Phage library screen NGS readout, BLANK (RNF31 PUB domain; column 3 of 5): 0
Phage library screen NGS readout, BLANK (RNF31 PUB domain; column 4 of 5): 0
Phage library screen NGS readout, BLANK (RNF31 PUB domain; column 5 of 5): 0

DPAWESCMYAAYDCDNE
Phage library screen NGS readout, Target Concentration 10 (RNF31 PUB domain): 0
Phage library screen NGS readout, Target Concentration 30 (RNF31 PUB domain): 1
Phage library screen NGS readout, Target Concentration 100 (RNF31 PUB domain): 0
Phage library screen NGS readout, Target Concentration 300 (RNF31 PUB domain): 2
Phage library screen NGS readout, Target Concentration 1000 (RNF31 PUB domain; [1]): 14
Phage library screen NGS readout, Target Concentration 1000 (RNF31 PUB domain; [2]): 5
Phage library screen NGS readout, BLANK (RNF31 PUB domain; column 1 of 5): 0
Phage library screen NGS readout, BLANK (RNF31 PUB domain; column 2 of 5): 0
Phage library screen NGS readout, BLANK (RNF31 PUB domain; column 3 of 5): 0
Phage library screen NGS readout, BLANK (RNF31 PUB domain; column 4 of 5): 0
Phage library screen NGS readout, BLANK (RNF31 PUB domain; column 5 of 5): 0

DPAHDWCLYAAYDCRVY
Phage library screen NGS readout, Target Concentration 10 (RNF31 PUB domain): 0
Phage library screen NGS readout, Target Concentration 30 (RNF31 PUB domain): 0
Phage library screen NGS readout, Target Concentration 100 (RNF31 PUB domain): 1
Phage library screen NGS readout, Target Concentration 300 (RNF31 PUB domain): 2
Phage library screen NGS readout, Target Concentration 1000 (RNF31 PUB domain; [1]): 15
Phage library screen NGS readout, Target Concentration 1000 (RNF31 PUB domain; [2]): 8
Phage library screen NGS readout, BLANK (RNF31 PUB domain; column 1 of 5): 0
Phage library screen NGS readout, BLANK (RNF31 PUB domain; column 2 of 5): 0
Phage library screen NGS readout, BLANK (RNF31 PUB domain; column 3 of 5): 0
Phage library screen NGS readout, BLANK (RNF31 PUB domain; column 4 of 5): 0
Phage library screen NGS readout, BLANK (RNF31 PUB domain; column 5 of 5): 0

DPALWDCLYAADACITS (not fully specified; cysteine pairing not given here)
Phage library screen NGS readout, Target Concentration 10 (RNF31 PUB domain): 0
Phage library screen NGS readout, Target Concentration 30 (RNF31 PUB domain): 1
Phage library screen NGS readout, Target Concentration 100 (RNF31 PUB domain): 0
Phage library screen NGS readout, Target Concentration 300 (RNF31 PUB domain): 4
Phage library screen NGS readout, Target Concentration 1000 (RNF31 PUB domain; [1]): 8
Phage library screen NGS readout, Target Concentration 1000 (RNF31 PUB domain; [2]): 12
Phage library screen NGS readout, BLANK (RNF31 PUB domain; column 1 of 5): 0
Phage library screen NGS readout, BLANK (RNF31 PUB domain; column 2 of 5): 2
Phage library screen NGS readout, BLANK (RNF31 PUB domain; column 3 of 5): 1
Phage library screen NGS readout, BLANK (RNF31 PUB domain; column 4 of 5): 0
Phage library screen NGS readout, BLANK (RNF31 PUB domain; column 5 of 5): 0

DPAFAQCEVAAMVCTTY
Phage library screen NGS readout, Target Concentration 10 (RNF31 PUB domain): 0
Phage library screen NGS readout, Target Concentration 30 (RNF31 PUB domain): 0
Phage library screen NGS readout, Target Concentration 100 (RNF31 PUB domain): 0
Phage library screen NGS readout, Target Concentration 300 (RNF31 PUB domain): 2
Phage library screen NGS readout, Target Concentration 1000 (RNF31 PUB domain; [1]): 5
Phage library screen NGS readout, Target Concentration 1000 (RNF31 PUB domain; [2]): 6
Phage library screen NGS readout, BLANK (RNF31 PUB domain; column 1 of 5): 0
Phage library screen NGS readout, BLANK (RNF31 PUB domain; column 2 of 5): 0
Phage library screen NGS readout, BLANK (RNF31 PUB domain; column 3 of 5): 0
Phage library screen NGS readout, BLANK (RNF31 PUB domain; column 4 of 5): 0
Phage library screen NGS readout, BLANK (RNF31 PUB domain; column 5 of 5): 0

DPATEACFDAAIECTYY
Phage library screen NGS readout, Target Concentration 10 (RNF31 PUB domain): 0
Phage library screen NGS readout, Target Concentration 30 (RNF31 PUB domain): 0
Phage library screen NGS readout, Target Concentration 100 (RNF31 PUB domain): 0
Phage library screen NGS readout, Target Concentration 300 (RNF31 PUB domain): 2
Phage library screen NGS readout, Target Concentration 1000 (RNF31 PUB domain; [1]): 7
Phage library screen NGS readout, Target Concentration 1000 (RNF31 PUB domain; [2]): 5
Phage library screen NGS readout, BLANK (RNF31 PUB domain; column 1 of 5): 0
Phage library screen NGS readout, BLANK (RNF31 PUB domain; column 2 of 5): 0
Phage library screen NGS readout, BLANK (RNF31 PUB domain; column 3 of 5): 0
Phage library screen NGS readout, BLANK (RNF31 PUB domain; column 4 of 5): 0
Phage library screen NGS readout, BLANK (RNF31 PUB domain; column 5 of 5): 0

DPAYTLCSWAAMYCDSM
Phage library screen NGS readout, Target Concentration 10 (RNF31 PUB domain): 0
Phage library screen NGS readout, Target Concentration 30 (RNF31 PUB domain): 1
Phage library screen NGS readout, Target Concentration 100 (RNF31 PUB domain): 0
Phage library screen NGS readout, Target Concentration 300 (RNF31 PUB domain): 0
Phage library screen NGS readout, Target Concentration 1000 (RNF31 PUB domain; [1]): 5
Phage library screen NGS readout, Target Concentration 1000 (RNF31 PUB domain; [2]): 6
Phage library screen NGS readout, BLANK (RNF31 PUB domain; column 1 of 5): 0
Phage library screen NGS readout, BLANK (RNF31 PUB domain; column 2 of 5): 1
Phage library screen NGS readout, BLANK (RNF31 PUB domain; column 3 of 5): 1
Phage library screen NGS readout, BLANK (RNF31 PUB domain; column 4 of 5): 4
Phage library screen NGS readout, BLANK (RNF31 PUB domain; column 5 of 5): 2

DPALSHCTVAAMVCSTY
Phage library screen NGS readout, Target Concentration 10 (RNF31 PUB domain): 1
Phage library screen NGS readout, Target Concentration 30 (RNF31 PUB domain): 1
Phage library screen NGS readout, Target Concentration 100 (RNF31 PUB domain): 1
Phage library screen NGS readout, Target Concentration 300 (RNF31 PUB domain): 11
Phage library screen NGS readout, Target Concentration 1000 (RNF31 PUB domain; [1]): 96
Phage library screen NGS readout, Target Concentration 1000 (RNF31 PUB domain; [2]): 69
Phage library screen NGS readout, BLANK (RNF31 PUB domain; column 1 of 5): 0
Phage library screen NGS readout, BLANK (RNF31 PUB domain; column 2 of 5): 0
Phage library screen NGS readout, BLANK (RNF31 PUB domain; column 3 of 5): 2
Phage library screen NGS readout, BLANK (RNF31 PUB domain; column 4 of 5): 0
Phage library screen NGS readout, BLANK (RNF31 PUB domain; column 5 of 5): 0
